Laboratory results published in US20240240160A1, “NOVEL OLIVETOL SYNTHASES FOR C[…]” (priority 2021, published 2024).

Experiments:
[1] = test system: hexanoyl-CoA or butyryl-CoA; experiment: High-throughput activity assay of OLS_Aro and its variants in cell lysate; format: biochemical; settings: in the absence of Olivetolic acid Cyclase (OAC)
Source text: Single amino acid positions of interest of OLS_Aro were identified based on a 7 Å radial proximity around the active site predicted based on docking results with the tetraketide product into a structural homology model of OLS_Aro. Variants were constructed as a plasmid-based library using specific primers at the positions undergoing mutagenesis, amplifying fragments via Polymerase Chain Reaction (PCR), and circularizing plasmids via Gibson ligation. For site-saturation mutagenesis of selected amino acids sites, a compressed-codon approach was used to eliminate codon redundancy to lower library size. The plasmid-base used was the pZS*vector (Novagen) with expression of the OLS_Aro under control of a pAl promoter and lactose (lac) operator. […]
Single colonies were picked for growth in Luria Bertani (LB) medium in 384-well plates containing with carbenicillin (Carb). […] Cells pellets were stored at −20° C. until ready for assay. […]
Reactions were initiated by addition of cell lysate, then incubated for 20 mins or 1 hr for hexanoyl-CoA and butyryl-CoA, respectively. […] Filtrates analyzed by LC/MS for the quantification of olivetolic acid (OLA), olivetol (OL), and pentyl diacetic acid lactone (PDAL); or divarinic acid (DVA), divarinol (DVL), and propyl diacetic acid lactone (Propyl-DAL). […]
Under the screening conditions described above, products are detected in the low or sub μM range. […]

[2] = test system: E. coli derivative strain which overexpressed an acyl-CoA synthetase (fadD) gene and expressed an olivetolic acid cyclase (OAC) from Cannabis sativa; experiment: OL, OLA and PDAL production in E. coli from genome-integrated Type-III PKS genes; format: cell-based
Procedure: To test olivetolic acid production in E. coli, strains comprising a putative OLS gene and an OAC gene from C. sativa were inoculated in multi-well plates containing LB supplemented with 1% glucose and appropriate concentrations of antibiotics. After 6 hours of cultivation at 32° C., the cells were transferred with a 10% inoculum to a P-limited seed medium (see Table 2) and cultivated for ˜18 hours at 32° ° C. to reach an OD of 2.0-4.0. The cultures were transferred with a 20% inoculum in a P-minimal medium (see Table 3) supplemented with 2% glucose and appropriate concentrations of antibiotics. After 3 hours of cultivation at 32° C., the culture was spiked with 4 mM hexanoic acid (˜OD 1.5-2.0). The resulting cultures were then harvested at either 3 hours or 21 hours post hexanoic acid spike; a final OD was taken. 300 μL of butyl acetate containing 500 mg/L undecanoic acid was added to each multi-well plate. The plates were then vortexed for 30 minutes at 1500 rpm and centrifuged for 10 minutes at 4500 rpm. 50 μL of organic layer was transferred to a 96-well plate and derivatized with 50 μL of N,O-Bis(trimethylsilyl)trifluoroacetamide (BSTFA). The plate was then incubated at room temperature for 2 hours to allow for complete derivatization. The samples were then run on GC-FID for analytical quantification of olivetolic acid (OLA), olivetol (OL), PDAL, and hexanoic acid.
Olivetol, PDAL, OLA, HTAL, CBGA and combinations thereof were analyzed by LCMS or LCMS/MS methods using C18 reversed phase chromatography coupled to either EXACTIVE™ (ThermoFisher) or QTRAP® 4500 (Sciex) mass spectrometers.
For reversed phase LCMS, compounds were identified by their LC retention times and MRM transitions specific to the compounds. LCMS/MS analysis was conducted on a Shimadzu UHPLC system coupled with AB Sciex QTRAP 4500 mass spectrometer. Agilent Eclipse XDB C18 column (4.6×3.0 mm, 1.8 μm) was used with a 1-min gradient elution at 1 mL/min using water containing 0.1% ammonia acetate as mobile phase A and 90% methanol containing 0.1% ammonia acetate as mobile phase B. The LC column temperature was maintained at 45° C. Negative ionization mode was used for all the analytes.
Three of the type-III PKS genes from Example 1 were integrated under control of a constitutive promoter into an E. coli derivative strain which overexpressed an acyl-CoA synthetase (fadD) gene and expressed an olivetolic acid cyclase (OAC) from Cannabis sativa.
The in vivo assay procedure and analytical methods were performed as described above.

[3] = test system: E. coli derivative strain which overexpressed an acyl-CoA synthetase (fadD) gene and expressed an olivetolic acid cyclase (OAC) from Cannabis sativa; experiment: OL, OLA and PDAL production in E. coli from plasmid-expressed Type-III PKS genes; format: cell-based; settings: gene on plasmid
Method in brief: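 E. coli strains expressing codon-optimized Type-III PKS genes (constitutive promoter) plus fadD overexpression and C. sativa OAC, grown at 32° C in P-minimal medium with 2% glucose, spiked with 4 mM hexanoic acid; harvested 3 h or 21 h post-spike. Butyl acetate extracts BSTFA-derivatized, OLA/OL/PDAL quantified by GC-FID.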

[4] = test system: hexanoyl-CoA and malonyl-CoA; experiment: Specific activity assay of purified type-III polyketide synthases (OLA formation in presence of OAC); format: biochemical; settings: hexanoyl-CoA and malonyl-CoA in the presence of OAC; FIG. 3
Procedure: In this Example, the specific activities of three previously uncharacterized type-III polyketide synthases (PKS) to form olivetolic acid from hexanoyl-CoA and malonyl-CoA in the presence of olivetolic acid cyclase (OAC) were determined and compared to the olivetol synthase (OLS) from C. sativa.
Assays were performed in a total volume of 50 μL in 100 mM Tris, pH 7.5 buffer containing 100 μM malonyl-CoA; 100 µM hexanoyl-CoA; a malonyl-CoA regenerating system comprising malonyl-CoA synthetase, excess malonate, and ATP; and excess purified olivetolic acid cyclase (OAC). The major product in this assay was olivetolic acid (OLA), and the triketide pentyl diacetic acid lactone (PDAL) was a side product. N-His-tagged purified enzymes were assayed under these assay conditions at enzyme concentrations and reaction times suitable for initial rate measurements of product formation. Reactions were initiated by addition of the PKS, then incubated for 30 min. Subsequently, 10 μL of reaction solution was removed and quenched into 15 volumes of 75% acetonitrile containing 0.1% formic acid and internal standards, then centrifuged to pellet denatured protein. Supernatants were transferred to fresh plates for LC-MS analysis of OLA, olivetol (OL), and PDAL as described in the Method section above.

[5] = constitutive promoter, 4 mM hexanoic acid
[6] = constitutive promoter, culture spiked with 4 mM hexanoic acid

B1: QDX46968.1: Type-III PKS enzyme (OLS) from Anoectochilus roxburghii, designated OLS_Aro (protein, listed as Anoectochilus roxburghii)
chain: MPSLESIRKAPRADGLASILAIGRANPDNFMEQSSFPDFFFRITGSDHLVDLKKKFQRICDRTAIRKRHFVWNEEFIKANPCFSTFMDNSLNVRQEVAIREIPKLGAEAATKAIKEWGQPKSRITHLIFCTTSGMDLPGADYQLTRILGLNPNVERVMLYQQGCFAGGTTLRLAKCLAESRKGARVLVVCAETTTVLFRAPSEEHQEDLVTQALFADGASAVIVGADPDEEAHEKASFVIFSTSQVLLPDSEGAIGGHVSEGGLLATLHRDVPQLVSKNVGKCLEEAFTPLGISDWNSIFWVPHPGGRAILDQIEERVGLKPEKLTTSRHVLAEYGNMSSVCVHFVLDEMRKKSSKEGKATTGEGLEWGVLFGFGPGLTVETVVLRSVPL
modifications: (1)..(390) QDX46968.1
- reaction products [1]: the major products are OL and PDAL or DVL and Propyl-DAL
- products produced by strains with chromosomally expressed enzyme [2]: produced olivetol (OL), olivetolic acid (OLA) and pentyl diacetic acid lactone (PDAL)
- Total ([2]; OL + OLA + PDAL): 276 µM
- OL [2, 5]: 98 µM
- OLA [2, 5]: 136 µM
- PDAL [2, 5]: 42 µM
- Total ([3]; OL + OLA + PDAL): 1956 µM
- levels of OLA relative to the E. coli strain with OLS from C. sativa [3]: over two-fold
- OL [3, 6]: 597 µM
- OLA [3, 6]: 823 µM
- PDAL [3, 6]: 536 µM
- specific activity to form olivetolic acid compared with OLS from C. sativa [4]: higher specific activities
